Target: Recombinant Cx43CT (carboxyl terminal domain of rat connexin43, residues 255-382, preceded by GPLG) (rat) (UniProt P08050)
Test: SPR, peptide 1.0 mM

Chain of Recombinant Cx43CT (carboxyl terminal domain of rat connexin43, residues 255-382, preceded by GPLG) (rat) (P08050 other isoform, or with tags, fused parts or gaps limits assumed): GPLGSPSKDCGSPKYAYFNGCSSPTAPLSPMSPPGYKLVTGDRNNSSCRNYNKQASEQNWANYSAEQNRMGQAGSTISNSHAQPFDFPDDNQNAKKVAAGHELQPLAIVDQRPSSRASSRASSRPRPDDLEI

Peptide 2502, AcRNP-NH2 gave a Response Dose (arbitrary units) of 4.6.
